One substance from paper PMC2895429 can be followed below.

The target in the assay is cardiac ryanodine receptor (RyR2) in permeabilized rat ventricular myocytes (rat (endogenous in ventricular myocytes)) (UniProt B0LPN4).
Chain of UniProt B0LPN4 (B0LPN4 whole entry): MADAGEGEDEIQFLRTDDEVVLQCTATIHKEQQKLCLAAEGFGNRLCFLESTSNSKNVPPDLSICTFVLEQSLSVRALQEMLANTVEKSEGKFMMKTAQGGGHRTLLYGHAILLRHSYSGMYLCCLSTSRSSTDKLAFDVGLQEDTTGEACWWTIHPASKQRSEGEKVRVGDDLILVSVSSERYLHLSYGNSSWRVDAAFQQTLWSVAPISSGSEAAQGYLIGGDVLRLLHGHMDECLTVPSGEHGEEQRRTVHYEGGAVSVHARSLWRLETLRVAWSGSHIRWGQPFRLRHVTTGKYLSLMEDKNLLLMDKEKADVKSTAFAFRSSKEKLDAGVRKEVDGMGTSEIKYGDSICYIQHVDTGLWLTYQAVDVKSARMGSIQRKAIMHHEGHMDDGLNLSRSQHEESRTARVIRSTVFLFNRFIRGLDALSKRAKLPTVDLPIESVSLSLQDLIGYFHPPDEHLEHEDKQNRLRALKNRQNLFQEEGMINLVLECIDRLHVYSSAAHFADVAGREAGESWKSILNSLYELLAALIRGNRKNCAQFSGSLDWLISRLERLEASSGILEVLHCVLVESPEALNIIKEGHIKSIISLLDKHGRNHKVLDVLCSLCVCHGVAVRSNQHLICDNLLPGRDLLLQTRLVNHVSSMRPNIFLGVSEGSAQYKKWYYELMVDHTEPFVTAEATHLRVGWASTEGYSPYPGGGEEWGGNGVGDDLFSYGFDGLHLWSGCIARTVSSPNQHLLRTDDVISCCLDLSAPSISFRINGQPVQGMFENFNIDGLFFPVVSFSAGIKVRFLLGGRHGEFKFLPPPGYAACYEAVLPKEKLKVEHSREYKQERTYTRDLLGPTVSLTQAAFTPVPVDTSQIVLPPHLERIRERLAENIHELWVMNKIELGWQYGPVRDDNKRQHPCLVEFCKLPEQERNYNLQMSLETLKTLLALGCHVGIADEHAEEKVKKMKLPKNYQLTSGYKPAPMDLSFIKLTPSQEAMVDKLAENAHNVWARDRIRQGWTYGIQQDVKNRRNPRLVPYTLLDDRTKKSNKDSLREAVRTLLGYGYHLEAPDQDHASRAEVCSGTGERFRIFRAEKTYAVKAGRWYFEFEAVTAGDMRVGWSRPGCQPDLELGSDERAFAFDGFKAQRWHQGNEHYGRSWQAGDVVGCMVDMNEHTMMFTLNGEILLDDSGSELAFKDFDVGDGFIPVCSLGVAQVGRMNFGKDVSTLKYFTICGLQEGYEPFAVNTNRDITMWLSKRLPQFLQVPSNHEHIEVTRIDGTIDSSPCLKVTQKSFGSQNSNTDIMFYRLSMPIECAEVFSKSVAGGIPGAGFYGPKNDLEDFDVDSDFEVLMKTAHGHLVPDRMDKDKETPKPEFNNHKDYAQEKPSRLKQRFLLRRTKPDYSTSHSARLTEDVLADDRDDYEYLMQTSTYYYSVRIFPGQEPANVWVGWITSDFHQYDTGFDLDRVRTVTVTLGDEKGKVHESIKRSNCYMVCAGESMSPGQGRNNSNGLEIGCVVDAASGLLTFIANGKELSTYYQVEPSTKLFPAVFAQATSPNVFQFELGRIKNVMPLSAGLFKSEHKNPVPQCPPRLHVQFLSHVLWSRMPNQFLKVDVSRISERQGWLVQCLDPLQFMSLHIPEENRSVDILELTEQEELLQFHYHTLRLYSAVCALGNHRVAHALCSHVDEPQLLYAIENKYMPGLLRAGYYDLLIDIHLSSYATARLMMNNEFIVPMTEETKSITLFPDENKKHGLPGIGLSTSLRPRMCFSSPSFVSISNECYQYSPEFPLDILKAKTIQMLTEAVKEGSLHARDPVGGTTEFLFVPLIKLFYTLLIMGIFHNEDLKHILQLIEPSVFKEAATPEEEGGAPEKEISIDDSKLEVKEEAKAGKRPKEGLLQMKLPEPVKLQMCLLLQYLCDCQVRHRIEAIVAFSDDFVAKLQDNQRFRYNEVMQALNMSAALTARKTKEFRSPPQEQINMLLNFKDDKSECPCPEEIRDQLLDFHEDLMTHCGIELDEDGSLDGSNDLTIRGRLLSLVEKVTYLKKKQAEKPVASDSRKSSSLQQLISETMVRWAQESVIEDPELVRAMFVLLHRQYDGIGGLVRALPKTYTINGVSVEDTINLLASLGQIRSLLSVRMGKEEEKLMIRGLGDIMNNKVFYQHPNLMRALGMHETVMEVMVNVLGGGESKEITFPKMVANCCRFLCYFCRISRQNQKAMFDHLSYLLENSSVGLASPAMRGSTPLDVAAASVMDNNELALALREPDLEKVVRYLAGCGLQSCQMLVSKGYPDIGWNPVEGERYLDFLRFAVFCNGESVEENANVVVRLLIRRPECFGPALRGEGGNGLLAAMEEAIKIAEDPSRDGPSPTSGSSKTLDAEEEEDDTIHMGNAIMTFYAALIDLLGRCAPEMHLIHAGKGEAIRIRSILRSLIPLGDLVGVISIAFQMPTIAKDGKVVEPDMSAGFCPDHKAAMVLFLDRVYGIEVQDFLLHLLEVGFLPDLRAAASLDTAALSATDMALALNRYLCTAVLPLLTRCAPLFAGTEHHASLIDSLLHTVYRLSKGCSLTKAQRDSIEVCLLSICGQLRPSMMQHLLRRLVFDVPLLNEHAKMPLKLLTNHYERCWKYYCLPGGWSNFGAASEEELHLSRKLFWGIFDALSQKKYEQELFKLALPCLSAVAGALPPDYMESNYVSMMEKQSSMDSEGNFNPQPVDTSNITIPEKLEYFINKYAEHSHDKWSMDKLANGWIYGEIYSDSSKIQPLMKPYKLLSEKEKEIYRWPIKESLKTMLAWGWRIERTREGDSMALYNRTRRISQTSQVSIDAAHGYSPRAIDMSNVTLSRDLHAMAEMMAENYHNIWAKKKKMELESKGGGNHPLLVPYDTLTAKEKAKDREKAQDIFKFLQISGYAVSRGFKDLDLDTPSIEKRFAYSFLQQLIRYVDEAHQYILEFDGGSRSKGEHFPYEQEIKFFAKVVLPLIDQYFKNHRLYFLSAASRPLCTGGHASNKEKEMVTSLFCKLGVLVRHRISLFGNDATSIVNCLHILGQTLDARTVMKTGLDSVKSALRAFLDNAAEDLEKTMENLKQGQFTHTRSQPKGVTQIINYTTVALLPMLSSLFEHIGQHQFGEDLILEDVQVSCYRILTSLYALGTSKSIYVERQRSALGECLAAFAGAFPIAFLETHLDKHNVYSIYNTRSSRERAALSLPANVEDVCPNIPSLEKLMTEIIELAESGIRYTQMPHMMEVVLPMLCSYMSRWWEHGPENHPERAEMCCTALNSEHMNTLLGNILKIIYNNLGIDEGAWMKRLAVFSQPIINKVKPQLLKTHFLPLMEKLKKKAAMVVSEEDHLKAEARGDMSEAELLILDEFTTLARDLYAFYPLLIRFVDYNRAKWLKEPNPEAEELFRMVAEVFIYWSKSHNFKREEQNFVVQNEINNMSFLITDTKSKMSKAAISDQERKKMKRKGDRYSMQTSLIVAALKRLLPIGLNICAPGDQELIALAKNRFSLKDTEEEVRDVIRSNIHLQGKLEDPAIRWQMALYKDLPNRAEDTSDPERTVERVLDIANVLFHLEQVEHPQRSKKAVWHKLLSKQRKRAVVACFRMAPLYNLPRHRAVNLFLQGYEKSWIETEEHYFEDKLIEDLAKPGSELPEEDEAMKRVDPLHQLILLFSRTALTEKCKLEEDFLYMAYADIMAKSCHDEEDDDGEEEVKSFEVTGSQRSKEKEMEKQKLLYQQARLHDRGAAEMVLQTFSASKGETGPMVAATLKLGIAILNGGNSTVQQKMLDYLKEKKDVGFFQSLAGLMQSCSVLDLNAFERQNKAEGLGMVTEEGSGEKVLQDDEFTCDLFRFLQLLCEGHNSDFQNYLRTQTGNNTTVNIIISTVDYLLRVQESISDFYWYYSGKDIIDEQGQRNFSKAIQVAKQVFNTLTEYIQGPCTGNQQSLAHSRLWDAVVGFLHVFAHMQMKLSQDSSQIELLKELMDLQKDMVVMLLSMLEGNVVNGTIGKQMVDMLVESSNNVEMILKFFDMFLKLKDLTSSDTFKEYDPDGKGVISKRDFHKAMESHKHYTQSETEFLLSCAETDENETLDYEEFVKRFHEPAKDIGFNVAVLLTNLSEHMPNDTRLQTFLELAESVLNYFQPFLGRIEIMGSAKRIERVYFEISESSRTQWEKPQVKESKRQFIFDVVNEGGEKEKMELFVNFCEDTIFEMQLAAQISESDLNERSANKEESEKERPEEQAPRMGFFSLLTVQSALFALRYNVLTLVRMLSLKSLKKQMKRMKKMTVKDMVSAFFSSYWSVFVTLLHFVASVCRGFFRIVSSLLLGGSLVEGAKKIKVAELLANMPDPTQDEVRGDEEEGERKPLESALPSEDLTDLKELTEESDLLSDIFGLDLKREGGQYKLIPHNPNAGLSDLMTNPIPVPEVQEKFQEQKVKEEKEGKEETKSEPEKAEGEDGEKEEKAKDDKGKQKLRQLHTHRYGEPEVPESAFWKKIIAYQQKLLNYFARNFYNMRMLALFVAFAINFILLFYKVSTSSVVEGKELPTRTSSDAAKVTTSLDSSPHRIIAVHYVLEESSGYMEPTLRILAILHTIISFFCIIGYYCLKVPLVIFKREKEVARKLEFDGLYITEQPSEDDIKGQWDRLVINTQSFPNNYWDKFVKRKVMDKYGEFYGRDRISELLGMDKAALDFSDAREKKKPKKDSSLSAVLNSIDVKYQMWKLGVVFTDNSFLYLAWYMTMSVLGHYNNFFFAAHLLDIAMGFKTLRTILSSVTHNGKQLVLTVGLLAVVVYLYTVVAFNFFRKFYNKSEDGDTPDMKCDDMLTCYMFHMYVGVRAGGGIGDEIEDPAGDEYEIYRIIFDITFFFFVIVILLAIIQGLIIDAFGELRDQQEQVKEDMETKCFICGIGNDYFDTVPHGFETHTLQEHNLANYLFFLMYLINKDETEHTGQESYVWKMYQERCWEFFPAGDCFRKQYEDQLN

Substance “non-fluorescent wild type FKBP12.6 (from UniProt P68106 1-108) (natural protein)” came in with a decrease in Ca spark amplitude in permeabilized rat myocytes of 15% and a decrease in resting Ca spark frequency (CaSpF) in permeabilized rat myocytes of 24%.
